According to doi:10.1101/2024.03.27.586411 (2024):
“And” between values parts separate entries of the source, which are not always exact repeats. Identical values can stand only once.

T1: PDCoV_(IL121_2014) receptor-binding domain (Porcine deltacoronavirus (PDCoV), …)
T1 chain: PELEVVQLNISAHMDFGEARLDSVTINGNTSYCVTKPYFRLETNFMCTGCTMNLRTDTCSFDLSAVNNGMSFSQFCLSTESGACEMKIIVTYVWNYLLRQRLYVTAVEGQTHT

B1: PD33 Fab fragment (Fab, V domains shown)
VH: EVQLVESGGGLVQPGGSLRLSCAASGFTFSHYTMNWVRQAPGRGLEWVSSITTSSNFIYYADSVKGRFTISRDNTKNSLYLQMNSLSAEDTAVYFCARGGWELSYFDFWGQGTLVTVSS
VL: DIVMTQSPLSLPVTLGQPASISCRSSQSLVYSDGNTFLNWFQQRPGQSPRRLIYKVSNRDSGVPDRFSGSGSGTDFTLRISRVEAEDVGFYYCMQGTHWPPTFGPGTKVEIK
B2: PD41 Fab fragment (Fab, V domains shown)
VH: HSQLQESGPGLVKPSQTLSLTCTVSGGSISSAGYYWNWIRQHPGKGLEWIGYIYYSGNTYYNPSLKSRVTISVDTSKSQFSLKLNSVTAADTAVYYCARKIVNWFDPWGQGTLVTVSS
VL: QSALTQPASVSGSPGQSITISCTGTSSDVGGYNYVSWYQQHPGKAPKLMIYDVSERPSGVSNRFSGSKSGNTASLTISGLQAEDEADYFCCSYAGYTTYVVFGGGTQLTVL

Columns and labels:
[1] = target: PDCoV S_(SD2018) ectodomain trimer (Porcine deltacoronavirus (PDCoV), isolate SD2018/300); test: cryo-EM structure; 1.5 uM PDCoV S SD2018/300 with 4.5 uM PD41 Fab, 1 hour at 4 C; 3D classification into four classes, local refinement of the RBD:PD41 region
[2] = target: human APN ectodomain, Fc fusion (human) (UniProt P15144); test: BLI; RBD to hAPN-Fc, series from 5 uM two-fold down to 39 nM; apparent KD; Octet Red, 30 C, 10 x Kinetics Buffer; 1:1 binding model; who was immobilised is not told for this series
[3] = target: T1, PDCoV_(IL121_2014) receptor-binding …; test: BLI
[4] = target: T1, PDCoV_(IL121_2014) receptor-binding …; test: BLI

human APN ectodomain, Fc fusion (human), sequence (P15144 66-967): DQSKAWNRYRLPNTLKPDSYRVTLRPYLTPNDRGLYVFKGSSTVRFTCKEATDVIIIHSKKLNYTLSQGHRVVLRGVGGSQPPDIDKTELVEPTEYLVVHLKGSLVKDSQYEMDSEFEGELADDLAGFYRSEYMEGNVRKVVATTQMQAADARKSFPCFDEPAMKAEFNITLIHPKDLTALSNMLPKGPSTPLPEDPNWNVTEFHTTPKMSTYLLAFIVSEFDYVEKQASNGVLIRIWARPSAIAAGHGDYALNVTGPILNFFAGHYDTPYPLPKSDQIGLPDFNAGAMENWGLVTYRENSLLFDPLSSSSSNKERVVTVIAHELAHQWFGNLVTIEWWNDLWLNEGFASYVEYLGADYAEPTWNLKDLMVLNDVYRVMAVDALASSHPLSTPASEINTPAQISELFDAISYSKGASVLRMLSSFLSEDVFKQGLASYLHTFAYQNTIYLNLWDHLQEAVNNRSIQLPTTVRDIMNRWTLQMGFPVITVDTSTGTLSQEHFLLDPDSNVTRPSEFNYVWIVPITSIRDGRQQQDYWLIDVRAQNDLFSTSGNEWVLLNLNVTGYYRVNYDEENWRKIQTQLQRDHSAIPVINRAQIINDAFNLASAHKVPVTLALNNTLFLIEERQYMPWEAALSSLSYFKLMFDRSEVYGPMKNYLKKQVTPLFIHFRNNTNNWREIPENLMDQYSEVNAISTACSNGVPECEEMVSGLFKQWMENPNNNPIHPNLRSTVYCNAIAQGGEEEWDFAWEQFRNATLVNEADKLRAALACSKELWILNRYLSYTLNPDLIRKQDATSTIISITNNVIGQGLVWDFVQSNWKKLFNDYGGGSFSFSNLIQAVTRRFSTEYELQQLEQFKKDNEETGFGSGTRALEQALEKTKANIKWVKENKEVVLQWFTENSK

Molecule	stoichiometry N [1]	fold greater affinity than RBD (IL121 2014) [2]	koff [3]	Kd [4]
PDCoV S_(SD2018) ectodomain trimer (natural protein)	3	–	–	–
PDCoV SD2018/300 receptor-binding domain (domain or fragment)	–	5 fold	–	–
B1	–	–	0.000586 s⁻¹ and 0.000542 s⁻¹	0.00436 µM
B2	–	–	0.00177 s⁻¹ and 0.002 s⁻¹	0.0226 µM and 0.0372 µM
